Legend:
[1] = molecular target: α-synuclein (UniProt P37840 1-140); assay: native mass spectrometry of α-synuclein incubated with the CCR
Procedure: Nanoflow electrospray ionization MS and tandem MS experiments were conducted under non-denaturing conditions on a QToF Q-Star Elite instrument (MDS Sciex, Canada), modified for improved transmission of large non-covalent complexes, or an Q-Exactive Plus Orbitrap EMR (ThermoFisher Scientific). Before MS analysis, 20 μl of up to 100 mM sample was buffer exchanged into 0.5-1 M ammonium acetate pH 7.5, using Bio-Spin columns (Bio-Rad). Sample concentrations were determined by ultraviolet absorbance. Assays were performed in positive ion mode and conditions were optimized to enable the ionization and removal of adducts, without disrupting the non-covalent interactions of the proteins tested. In tandem MS experiments, the relevant m/z values were isolated and argon gas was admitted to the collision cell. […] The following experimental parameters were used on the QToF Q-Star Elite instrument: capillary voltage up to 1.1 kV, declustering potential up to 220 V, focusing potential up to 240 V, a second declustering potential of 15 V, collision energy of between 20 and 200 V and an MCP of 2,350 V. The following experimental conditions were used on the Q-Exactive Plus Orbitrap EMR: capillary voltage 1.7 kV, MS spectra were recorded at low resolution (5000), and the HCD cell voltage was set to 20-50 V, at trapping gas pressure setting of 3.9. […]

[2] = molecular target: T1, T. acidophilum (Archaea) 20S proteasome (T. acidophilum, UniProt P25156 1-233; P28061 9-211); assay: peptide array of overlapping T. acidophilum 20S proteasome peptides
T1 construct: Assembled in vitro as α7β7β7α7; also called archaeal 20S proteasome; 20S proteasome from T. acidophilum

[3] = molecular target: T1, T. acidophilum (Archaea) 20S proteasome; assay: native MS with MS/MS of the isolated 20S proteasome peak
Procedure: Nanoflow electrospray ionization MS and tandem MS experiments were conducted under non-denaturing conditions on a QToF Q-Star Elite instrument (MDS Sciex, Canada), modified for improved transmission of large non-covalent complexes, or an Q-Exactive Plus Orbitrap EMR (ThermoFisher Scientific). Before MS analysis, 20 μl of up to 100 mM sample was buffer exchanged into 0.5-1 M ammonium acetate pH 7.5, using Bio-Spin columns (Bio-Rad). Sample concentrations were determined by ultraviolet absorbance. Assays were performed in positive ion mode and conditions were optimized to enable the ionization and removal of adducts, without disrupting the non-covalent interactions of the proteins tested. In tandem MS experiments, the relevant m/z values were isolated and argon gas was admitted to the collision cell. […] The following experimental parameters were used on the QToF Q-Star Elite instrument: capillary voltage up to 1.1 kV, declustering potential up to 220 V, focusing potential up to 240 V, a second declustering potential of 15 V, collision energy of between 20 and 200 V and an MCP of 2,350 V. The following experimental conditions were used on the Q-Exactive Plus Orbitrap EMR: capillary voltage 1.7 kV, MS spectra were recorded at low resolution (5000), and the HCD cell voltage was set to 20-50 V, at trapping gas pressure setting of 3.9.

T1 sequence (P25156 whole entry, chain 1 of 2): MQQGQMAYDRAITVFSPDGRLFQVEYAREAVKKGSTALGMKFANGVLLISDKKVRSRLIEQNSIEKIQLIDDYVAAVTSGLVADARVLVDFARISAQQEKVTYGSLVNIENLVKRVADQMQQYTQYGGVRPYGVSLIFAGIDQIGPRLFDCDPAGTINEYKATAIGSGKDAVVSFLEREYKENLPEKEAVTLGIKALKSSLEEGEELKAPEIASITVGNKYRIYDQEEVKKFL
T1 sequence (P28061 9-211, chain 2 of 2): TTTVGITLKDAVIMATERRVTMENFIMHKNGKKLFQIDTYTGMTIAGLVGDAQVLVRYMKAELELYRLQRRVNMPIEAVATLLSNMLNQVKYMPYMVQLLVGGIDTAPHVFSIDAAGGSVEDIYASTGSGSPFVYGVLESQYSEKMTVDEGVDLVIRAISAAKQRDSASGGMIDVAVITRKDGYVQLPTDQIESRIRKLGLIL

binding result [1]	binding result [2]	binding result [3]	Binder
no binding			human PGDH with a C-terminal 6His tag (enzyme, also called PGDH-His; not shown: C-terminal 6His tag) MHVNGKVALVTGAAQGIGRAFAEALLLKGAKVALVDWNLEAGVQCKAALDEQFEPQKTLFIQCDVADQQQLRDTFRKVVDHFGRLDILVNNAGVNNEKNWEKTLQINLVSVISGTYLGLDYMSKQNGGEGGIIINMSSLAGLMPVAQQPVYCASKHGIVGFTRSAALAANLMNSGVRLNAICPGFVNTAILESIEKEENMGQYIEYKDHIKDMIKYYGILDPPLIANGLITLIEDDALNGAIMKITTSKGIHFQDYDTTPFQAKTQ
no binding	binds		human CBR3 (recombinant, His tag removed) (enzyme, UniProt O75828 1-277, looked up) MSSCSRVALVTGANRGIGLAIARELCRQFSGDVVLTARDVARGQAAVQQLQAEGLSPRFHQLDIDDLQSIRALRDFLRKEYGGLNVLVNNAAVAFKSDDPMPFDIKAEMTLKTNFFATRNMCNELLPIMKPHGRVVNISSLQCLRAFENCSEDLQERFHSETLTEGDLVDLMKKFVEDTKNEVHEREGWPNSPYGVSKLGVTVLSRILARRLDEKRKADRILVNACCPGPVKTDMDGKDSIRTVEEGAETPVYLALLPPDATEPQGQLVHDKVVQNW
		binds	human DJ-1 (other, UniProt Q99497 1-189, looked up, also called PARK7) MASKRALVILAKGAEEMETVIPVDVMRRAGIKVTVAGLAGKDPVQCSRDVVICPDASLEDAKKEGPYDVVVLPGGNLGAQNLSESAAVKEILKEQENRKGLIAAICAGPTALLAHEIGFGSKVTTHPLAKDKMMNGGHYTYSENRVEKDGLILTSRGPGTSFEFALAIVEALNGKEVAAQVKAPLVLKD

Source: patent publication US20200362018A1 (YEDA RESEARCH AND DEVELOPMENT, published 2020)
